Target: the molecule itself
Assay: dynamic light scattering

B1: STIM1 23-213 (luminal domain of human stromal interaction molecule-1), wild type, unmodified (1 mM DTT) (domain or fragment, UniProt Q13586-1 23-213, looked up)
chain: LSHSHSEKATGTSSGANSEESTAAEFCRIDKPLCHSEDEKLSFEAVRNIHKLMDDDANGDVDVEESDEFLREDLNYHDPTVKHSTFHGEDKLISVEDLWKAWKSSEVYNWTVDEVVQWLITYVELPQYEETFRKLQLSGHAMPRLAVTNTTMTGTVLKMTDRSHRQKLQLKALDTVLFGPPLLTRHNHLKD
- binding result: binds

B2: Cys49Ser/Cys56Ser double mutant STIM1 23-213 (domain or fragment, human, UniProt Q13586-1 23-213, looked up)
chain: LSHSHSEKATGTSSGANSEESTAAEFSRIDKPLSHSEDEKLSFEAVRNIHKLMDDDANGDVDVEESDEFLREDLNYHDPTVKHSTFHGEDKLISVEDLWKAWKSSEVYNWTVDEVVQWLITYVELPQYEETFRKLQLSGHAMPRLAVTNTTMTGTVLKMTDRSHRQKLQLKALDTVLFGPPLLTRHNHLKD
- binding result: binds
